# B1: ZNF511 (parent)
# chain: EPLPVERDPAAGAAPFRFVARPVR
# B2: KRT71 (parent)
# chain: FGSRSLYSLGGVRSLNVASGSGKS
# Variants of: B1
# Assay: protein stability index of a GFP-peptide fusion (GPS, HEK-293T) (PSI 1-6); higher = more stable
# Conditions: c terminus: a fixed tail appended
# 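Further: lentivirally expressed fusions sorted by FACS into six bins by GFP to DsRed ratio, PSI derived from sequencing read proportions per bin multiplied by bin number.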
row,Variant,protein stability index
1,EPLPVERDPAAGAAPFRFVRRPVR [A20R],1.67
2,EPLPVERDPAAGAAPFRFVGRPVR [A20G],2.04
3,EPLPVERDPAAGAAPFRFVPRPVR [A20P],2.2
4,EPLPVERDPAAGAAPFRDVARPVR [F18D],4.97
5,EPLPVERDPAAGAAPFRRVARPVR [F18R],4.91
6,EPLPVERDPAAGAAPFRHVARPVR [F18H],4.71
7,EPLPVERDPAAGAAPFRSVARPVR [F18S],5.18
8,EPLPVERDPAAGAAPFRYVARPVR [F18Y],4.32
9,EPLPVERDPAAGAAPFRTVARPVR [F18T],4.86
10,EPLPVERDPAAGAAPFRIVARPVR [F18I],4.71
11,EPLPVERDPAAGAAPFRMVARPVR [F18M],4.6
12,EPLPVERDPAAGAAPFRAVARPVR [F18A],4.83
13,EPLPVERDPAAGAAPFRVVARPVR [F18V],4.6
14,EPLPVERDPAAGAAPFRLVARPVR [F18L],4.49
15,EPLPVERDPAAGAAPFRCVARPVR [F18C],4.59
16,EPLPVERDPAAGAAPFRKVARPVR [F18K],4.87
17,EPLPVERDPAAGAAPFREVARPVR [F18E],5.37
18,EPLPVERDPAAGAAPFRWVARPVR [F18W],4.43
19,EPLPVERDPAAGAAPFRGVARPVR [F18G],5.14
20,EPLPVERDPAAGAAPFRPVARPVR [F18P],5.01
21,EPLPVERDPAAGAAPFRQVARPVR [F18Q],4.79
22,EPLPVERDPAAGAAPFRNVARPVR [F18N],4.99
23,EPLPVERDPAAGAAPKRFVARPVR [F16K],4.67
24,EPLPVERDPAAGAAPTRFVARPVR [F16T],4.52
25,EPLPVERDPAAGAAPERFVARPVR [F16E],5.25
26,EPLPVERDPAAGAAPDRFVARPVR [F16D],5.52
27,EPLPVERDPAAGAAPRRFVARPVR [F16R],5.16

row,Variant,protein stability index
1,EPLPVERDPAAGAAPWRFVARPVR [F16W],2.46
2,EPLPVERDPAAGAAPNRFVARPVR [F16N],4.86
3,EPLPVERDPAAGAAPYRFVARPVR [F16Y],3.82
4,EPLPVERDPAAGAAPPRFVARPVR [F16P],5.26
5,EPLPVERDPAAGAAPARFVARPVR [F16A],4.67
6,EPLPVERDPAAGAAPQRFVARPVR [F16Q],5.34
7,EPLPVERDPAAGAAPVRFVARPVR [F16V],4.62
8,EPLPVERDPAAGAAPIRFVARPVR [F16I],4.73
9,EPLPVERDPAAGAAPMRFVARPVR [F16M],3.69
10,EPLPVERDPAAGAAPLRFVARPVR [F16L],4.06
11,EPLPVERDPAAGAAPHRFVARPVR [F16H],4.75
12,EPLPVERDPAAGAAPSRFVARPVR [F16S],4.88
13,EPLPVERDPAAGAAPGRFVARPVR [F16G],5.43
14,EPLPVERDPAAGAAPCRFVARPVR [F16C],4.08
15,EPLPVERDPAAGAAPFRFVARPVF [R24F],2.04
16,EPLPVERDPAAGAAPFRFVARPVV [R24V],1.7
17,EPLPVERDPAAGAAPFRFVARPVP [R24P],2.75
18,EPLPVERDPAAGAAPFRFVARPVK [R24K],2.04
19,EPLPVERDPAAGAAPFRFVARPVL [R24L],1.62
20,EPLPVERDPAAGAAPFRFVARPVS [R24S],1.81
21,EPLPVERDPAAGAAPFRFVARPVH [R24H],2.02
22,EPLPVERDPAAGAAPFRFVARPVT [R24T],1.97
23,EPLPVERDPAAGAAPFRFVARPVN [R24N],2.18
24,EPLPVERDPAAGAAPFRFVARPVA [R24A],2.2
25,EPLPVERDPAAGAAPFRFVARPVD [R24D],2.17
26,EPLPVERDPAAGAAPFRFVARPVE [R24E],2.15
27,EPLPVERDPAAGAAPFRFVARPVI [R24I],2.33

row,Variant,protein stability index
1,EPLPVERDPAAGAAPFRFVARPVW [R24W],1.64
2,EPLPVERDPAAGAAPFRFVARPVC [R24C],2.22
3,EPLPVERDPAAGAAPFRFVARPVG [R24G],1.89
4,EPLPVERDPAAGAAPFRFVARPVM [R24M],2.37
5,EPLPVERDPAAGAAPFRFVARPVQ [R24Q],1.77
6,EPLPVERDPAAGAAPFRFVARPVY [R24Y],1.78
7,EPLPVERDPAAGAAPFRFVARPTR [V23T],2.17
8,EPLPVERDPAAGAAPFRFVARPPR [V23P],2.83
9,EPLPVERDPAAGAAPFRFVARPMR [V23M],2.4
10,EPLPVERDPAAGAAPFRFVARPDR [V23D],2.4
11,EPLPVERDPAAGAAPFRFVARPFR [V23F],2.48
12,EPLPVERDPAAGAAPFRFVARPRR [V23R],2.8
13,EPLPVERDPAAGAAPFRFVARPQR [V23Q],2.95
14,EPLPVERDPAAGAAPFRFVARPYR [V23Y],2.07
15,EPLPVERDPAAGAAPFRFVARPSR [V23S],2.41
16,EPLPVERDPAAGAAPFRFVARPER [V23E],2.4
17,EPLPVERDPAAGAAPFRFVARPIR [V23I],3
18,EPLPVERDPAAGAAPFRFVARPKR [V23K],2.01
19,EPLPVERDPAAGAAPFRFVARPWR [V23W],2.28
20,EPLPVERDPAAGAAPFRFVARPAR [V23A],2.58
21,EPLPVERDPAAGAAPFRFVARPNR [V23N],2.13
22,EPLPVERDPAAGAAPFRFVARPHR [V23H],2.69
23,EPLPVERDPAAGAAPFRFVARPGR [V23G],2.25
24,EPLPVERDPAAGAAPFRFVARPLR [V23L],2.73
25,EPLPVERDPAAGAAPFRFVARPCR [V23C],3.19

# Variants of: B2
# Assay: as above
# Conditions: c terminus: a fixed tail appended
row,Variant,protein stability index
1,KGSRSLYSLGGVRSLNVASGSGKS [F1K],4.06
2,PGSRSLYSLGGVRSLNVASGSGKS [F1P],3.92
3,CGSRSLYSLGGVRSLNVASGSGKS [F1C],2.87
4,NGSRSLYSLGGVRSLNVASGSGKS [F1N],3.85
5,HGSRSLYSLGGVRSLNVASGSGKS [F1H],3.98
6,AGSRSLYSLGGVRSLNVASGSGKS [F1A],4.02
7,RGSRSLYSLGGVRSLNVASGSGKS [F1R],3.55
8,MGSRSLYSLGGVRSLNVASGSGKS [F1M],3.75
9,LGSRSLYSLGGVRSLNVASGSGKS [F1L],3.43
10,EGSRSLYSLGGVRSLNVASGSGKS [F1E],3.83
11,GGSRSLYSLGGVRSLNVASGSGKS [F1G],3.44
12,SGSRSLYSLGGVRSLNVASGSGKS [F1S],4.56
13,QGSRSLYSLGGVRSLNVASGSGKS [F1Q],4.4
14,IGSRSLYSLGGVRSLNVASGSGKS [F1I],3.33
15,DGSRSLYSLGGVRSLNVASGSGKS [F1D],4.03
